Results on 2 molecules are retold here after patent US20230220007A1, “SETD7 EPIGENETIC MODULATORS” (Biorchestra Co., Ltd., priority 2020, published 2023).

Data set [1] relates to TAF10. Conditions: cited from earlier work.
Data set [2] relates to H3 and p53/TP53. To be noted: cited from earlier work.
Data set [3] relates to human retinal pigment epithelial cells (RPE). As to the kind of experiment: Nuclear translocation of SETD7 alanine (phospho-disrupting) mutants in response to high glucose levels. The format is cell-based. To be noted: mutants expressed in human RPE cells; FIG. 3. From the text:
To identify the potential role of phosphorylatable sites located in the C-terminal regions of SETD7 (FIG. 1), phosphorylatable serines, threonines and tyrosines at positions 225, 305, 332, 340, and 345 where mutated to alanine (phospho-disrupting mutations) and expressed in human retinal pigment epithelial cells (RPE). Nuclear translocation or lack thereof in response to high glucose levels was examined (FIG. 2).
SETD7 cellular distribution changed in response to changes in glucose levels for wild type SETD7 (WT) and SETD7 mutants comprising a S225A substitution or a Y305A substitutions.

Data set [4] has as its system human retinal pigment epithelial (RPE) cells. As to the kind of experiment: Cellular distribution of SETD7-GFP mutants under low or high glucose (GFP fluorescence). The format is cell-based. To be noted: SETD7-GFP mutants in human RPE cells; low glucose and high glucose conditions; FIG. 4. Here is the method: SETD7-GFP mutants with phospho-mimicking substitutions at positions 332, 340 and/or 345 were prepared. The phospho-mimicking substitutions were T332E, S340D, and/or S345D. The SETD7-GFP mutants were expressed in human retinal pigment epithelial (RPE) cells. The fluorescence intensity emitted from the GFP signal in the cells under high or low glucose condition was measured.

B1: K317A: SETD7 substitution mutant at position 317 (protein)
chain: MDSDDEMVEEAVEGHLDDDGLPHGFCTVTYSSTDRFEGNFVHGEKNGRGKFFFFDGSTLEGYYVDDALQGQGVYTYEDGGVLQGTYVDGELNGPAQEYDTDGRLIFKGQYKDNIRHGVCWIYYPDGGSLVGEVNEDGEMTGEKIAYVYPDERTALYGKFIDGEMIEGKLATLMSTEEGRPHFELMPGNSVYHFDKSTSSCISTNALLPDPYESERVYVAESLISSAGEGLFSKVAVGPNTVMSFYNGVRITHQEVDSRDWALNGNTLSLDEETVIDVPEPYNHVSKYCASLGHKANHSFTPNCIYDMFVHPRFGPIACIRTLRAVEADEELTVAYGYDHSPPGKSGPEAPEWYQVELKAFQATQQK
Regarding B1, the “methyltransferase activity toward TAF10” value in data set [1] is “reduction”. Also, the “methyltransferase activity for H3 and p53/TP53” value in data set [2] was “increased”.

B2: SETD7 S340A: SETD7 mutant, Ser340 mutated to alanine; cannot be phosphorylated (protein)
chain: MDSDDEMVEEAVEGHLDDDGLPHGFCTVTYSSTDRFEGNFVHGEKNGRGKFFFFDGSTLEGYYVDDALQGQGVYTYEDGGVLQGTYVDGELNGPAQEYDTDGRLIFKGQYKDNIRHGVCWIYYPDGGSLVGEVNEDGEMTGEKIAYVYPDERTALYGKFIDGEMIEGKLATLMSTEEGRPHFELMPGNSVYHFDKSTSSCISTNALLPDPYESERVYVAESLISSAGEGLFSKVAVGPNTVMSFYNGVRITHQEVDSRDWALNGNTLSLDEETVIDVPEPYNHVSKYCASLGHKANHSFTPNCIYDMFVHPRFGPIKCIRTLRAVEADEELTVAYGYDHAPPGKSGPEAPEWYQVELKAFQATQQK
On to B2, for which, in data set [3], the “nuclear translocation in response to changes in glucose” value is reported as “did not translocate to the nucleus”. For the same molecule, the “translocation to the nucleus” value in data set [4] is on record as “not translocated to the nucleus”.
